Laboratory results as given in patent publication US20080219971A1 (VACCINEX, published 2008).
Positions count from the first letter of the chain named. Names may count otherwise.

T1: Human CD100 (human, UniProt Q92854 22-734, limits assumed)
T1 construct: also called SEMA4D; Hu CD100
T1 sequence (looked up): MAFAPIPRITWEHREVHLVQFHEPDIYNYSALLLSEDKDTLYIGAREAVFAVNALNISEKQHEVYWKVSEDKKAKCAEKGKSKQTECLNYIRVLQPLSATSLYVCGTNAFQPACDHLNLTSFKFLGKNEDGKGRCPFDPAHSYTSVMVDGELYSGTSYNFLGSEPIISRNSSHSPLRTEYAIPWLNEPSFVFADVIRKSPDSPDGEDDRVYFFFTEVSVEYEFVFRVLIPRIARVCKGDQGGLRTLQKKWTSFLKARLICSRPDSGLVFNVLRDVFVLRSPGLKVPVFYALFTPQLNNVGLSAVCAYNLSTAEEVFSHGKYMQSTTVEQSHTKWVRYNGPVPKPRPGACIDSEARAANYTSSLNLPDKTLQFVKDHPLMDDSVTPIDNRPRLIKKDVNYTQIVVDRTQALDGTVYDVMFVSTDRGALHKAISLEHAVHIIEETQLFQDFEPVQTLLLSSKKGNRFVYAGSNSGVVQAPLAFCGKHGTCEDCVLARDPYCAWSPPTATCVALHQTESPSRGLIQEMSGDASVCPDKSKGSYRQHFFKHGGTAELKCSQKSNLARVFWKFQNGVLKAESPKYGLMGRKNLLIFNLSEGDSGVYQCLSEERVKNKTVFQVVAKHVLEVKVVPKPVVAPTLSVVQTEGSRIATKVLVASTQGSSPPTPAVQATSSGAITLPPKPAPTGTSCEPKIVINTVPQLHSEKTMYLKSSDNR

T2: human CD100-Fc (human, UniProt Q92854 22-734, limits assumed)
T2 construct: also called CD100-Fc antigen
T2 sequence (looked up): T1 sequence (looked up)

B1: MAb 2117 (antibody, V domains shown)
VH: QVQLVQSGAEVKKPGSSVKVSCKASGYTFTDYYMDWVRQAPGQGLEWMGRVNPYHGGATYNQKFKGRVTITADKSTSTAYMELSSLRSEDTAVYYCAREENSYTGYYGMDYWGQGTLVTVSS
VL: DIVMTQSPLSLPVSPGEPATINCKSSQSLFNSGNQKNYLAWYLQKPGQPPKLLIYGASTRESGVPDRFSGSGSGTDFTLTISSLQAEDVAVYYCQNDHTYPYTFGQGTKLEIK
notes: H1651 mutant VH combined with L284; also called H1651 D104T with L284
B2: MAb 2125 (antibody, V domains shown)
VH: B1 VH with E100D, T104D
VL: B1 VL
notes: H1651 mutant VH combined with L284; also called H1651 E100D with L284
B3: MAb 2139 (antibody, V domains shown)
VH: B1 VH with K23T, T104D
VL: B1 VL
notes: H1651 mutant VH combined with L284; also called H1651 K23T with L284
B4: MAb 2144 (antibody, V domains shown)
VH: B1 VH with Q6A, T104D
VL: B1 VL
notes: H1651 mutant VH combined with L284; also called H1651 Q6A with L284
B5: MAb 2163 (antibody, V domains shown)
VH: B1 VH with D31K, T104D
VL: B1 VL
notes: H1651 mutant VH combined with L284; also called H1651 D31K with L284
B6: MAb 2202 (antibody, V domains shown)
VH: B1 VH with G57F, T104D
VL: B1 VL
notes: H1651 mutant VH combined with L284; also called H1651 G57F with L284
B7: MAb 2208 (antibody, V domains shown)
VH: B1 VH with A58G, T104D
VL: B1 VL
notes: H1651 mutant VH combined with L284; also called H1651 A58G with L284
B8: MAb 2216 (antibody, V domains shown)
VH: B1 VH with T59F, T104D
VL: B1 VL
notes: H1651 mutant VH combined with L284; also called H1651 T59F with L284
B9: MAb 2220 (antibody, V domains shown)
VH: B1 VH with Y60F, T104D
VL: B1 VL
notes: H1651 mutant VH combined with L284; also called H1651 Y60F with L284
B10: MAb 301 (antibody, human IgG1, V domains shown)
VH: EVQLQQSGPELVKPGASVKMSCKASGYTFTDYYMDWVKQSHGESFEWIGRVNPYHGGATYNQKFKGKATLTVDKSSRTAYMELNSLTYEDSAVYYCAREENSYDGYYGMDYWGQGTTVTVSS
VL: DIVLTQSPSSLSVSAGEKVTMDCKSSQSLFNSGNQKNYLAWYHQKPGQPPKLLIYGASTRESGVPDRFTGSGSGTDFTLTISSVQAEDLAVYYCQNDHTYPYTFGGGTKLEIK
notes: Chimeric, human IgG1, human kappa constant domain; also called chimeric BD16; H387/L124
B11: MAb 657 (antibody, human IgG1, V domains shown)
VH: B1 VH with M48I, R67K, V68A, A72V, T104D
VL: B1 VL
notes: Humanized BD16, human IgG1; also called H1235/L284
B12: MAb 1656 (antibody, human IgG1, V domains shown)
VH: B1 VH with T104D
VL: B1 VL
notes: Humanized BD16, fully human frameworks, human IgG1; also called H1651/L284
B13: MAb 1807 (antibody, human IgG4, V domains shown)
VH: B1 VH with M48I, R67K, V68A, A72V, T104D
VL: B1 VL
notes: Humanized BD16, human IgG4; also called H1235/L284
B14: MAb 2206 (antibody, V domains shown)
VH: B1 VH with G57W, T104D
VL: B1 VL
notes: H1651 mutant VH combined with L284; also called H1651 G57W with L284
B15: MAb 2207 (antibody, V domains shown)
VH: B1 VH with G57Y, T104D
VL: B1 VL
notes: H1651 mutant VH combined with L284; also called H1651 G57Y with L284
B16: MAb 2218 (antibody, V domains shown)
VH: B1 VH with T59V, T104D
VL: B1 VL
notes: H1651 mutant VH combined with L284; also called H1651 T59V with L284
B17: MAb 2219 (antibody, V domains shown)
VH: B1 VH with T59W, T104D
VL: B1 VL
notes: H1651 mutant VH combined with L284; also called H1651 T59W with L284
B18: MAb 2224 (antibody, V domains shown)
VH: B1 VH with Y60P, T104D
VL: B1 VL
notes: H1651 mutant VH combined with L284; also called H1651 Y60P with L284
B19: MAb 2225 (antibody, V domains shown)
VH: B1 VH with Y60V, T104D
VL: B1 VL
notes: H1651 mutant VH combined with L284; also called H1651 Y60V with L284
B20: MAb 2274 (antibody, V domains shown)
VH: B1 VH with Q6A, D31K, T104D
VL: B1 VL
notes: Double mutant of H1651 with L284; also called H1651 Q6A D31K with L284
B21: MAb 2275 (antibody, V domains shown)
VH: B1 VH with Q6A, G57F, T104D
VL: B1 VL
notes: Double mutant of H1651 with L284; also called H1651 Q6A G57F with L284
B22: MAb 2276 (antibody, V domains shown)
VH: B1 VH with Q6A, G57Y, T104D
VL: B1 VL
notes: Double mutant of H1651 with L284; also called H1651 Q6A G57Y with L284
B23: MAb 2277 (antibody, V domains shown)
VH: B1 VH with Q6A, T59F, T104D
VL: B1 VL
notes: Double mutant of H1651 with L284; also called H1651 Q6A T59F with L284
B24: MAb 2278 (antibody, V domains shown)
VH: B1 VH with Q6A, Y60F, T104D
VL: B1 VL
notes: Double mutant of H1651 with L284; also called H1651 Q6A Y60F with L284
B25: MAb 2279 (antibody, V domains shown)
VH: B1 VH with Q6A, Y60V, T104D
VL: B1 VL
notes: Double mutant of H1651 with L284; also called H1651 Q6A Y60V with L284
B26: MAb 2280 (antibody, V domains shown)
VH: B1 VH with K23T, D31K, T104D
VL: B1 VL
notes: Double mutant of H1651 with L284; also called H1651 K23T D31K with L284
B27: MAb 2281 (antibody, V domains shown)
VH: B1 VH with K23T, G57F, T104D
VL: B1 VL
notes: Double mutant of H1651 with L284; also called H1651 K23T G57F with L284
B28: MAb 2282 (antibody, V domains shown)
VH: B1 VH with K23T, G57Y, T104D
VL: B1 VL
notes: Double mutant of H1651 with L284; also called H1651 K23T G57Y with L284
B29: MAb 2283 (antibody, V domains shown)
VH: B1 VH with K23T, T59F, T104D
VL: B1 VL
notes: Double mutant of H1651 with L284; also called H1651 K23T T59F with L284
B30: MAb 2284 (antibody, V domains shown)
VH: B1 VH with K23T, Y60F, T104D
VL: B1 VL
notes: Double mutant of H1651 with L284; also called H1651 K23T Y60F with L284
B31: MAb 2285 (antibody, V domains shown)
VH: B1 VH with K23T, Y60V, T104D
VL: B1 VL
notes: Double mutant of H1651 with L284; also called H1651 K23T Y60V with L284

The binders below were run against T1, Human CD100 (assay: affinity testing, method and unit not printed in Example 10 (nM as in Table 3); mutant value, before the parentheses).

Binder | Kd [nM]
B1 | 0.52
B2 | 0.66
B3 | 0.61
B4 | 0.43
B5 | 0.06
B6 | 0.06
B7 | 0.08
B8 | 0.06
B9 | 0.04

Each binder was assayed against T2, human CD100-Fc (assay: ELISA on CD100-Fc antigen).

Binder | EC50 (read off the curve) [µg/mL]
B10 | ~0.02
B11 | ~0.03

These binders were tested against T1, Human CD100 (assay: ELISA method of Friguet et al.; column head 'Affinity (nM) IC50 ELISA'; antigen not named).
Description: Antibody affinity was measured according to the ELISA method described in Friguet et al. (1985) J Immunol Methods 77(2):305-19.

Binder | Kd [nM]
B11 | 0.12
B12 | 0.12
B13 | 0.12

These binders were tested against T3, huErb2-Fc (human, UniProt P04626 23-652) (assay: ELISA on huErb2-Fc antigen (Neg Ctrl)).
T3 construct: Negative control antigen; also called huErb2-Fc antigen

Binder | binding result
B10 | no binding (tested: 500 ng/ml)
B11 | no binding (tested: 500 ng/ml)

What follows are binders tested against T1, Human CD100 (assay: affinity testing, method and unit not printed in Example 10 (nM as in Table 3)).

Binder | Kd [nM]
B14 | 0.09
B15 | 0.06
B16 | 0.08
B17 | 0.08
B18 | 0.07
B19 | 0.04

The binders below were run against T4, streptavidin (UniProt P22629 37-163, limits assumed) (assay: ELISA).
T4 construct: Negative control antigen
T4 sequence (P22629 37-163 limits assumed): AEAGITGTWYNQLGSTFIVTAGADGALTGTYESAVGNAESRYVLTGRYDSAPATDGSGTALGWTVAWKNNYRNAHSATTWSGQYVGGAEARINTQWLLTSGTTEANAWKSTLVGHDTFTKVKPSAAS

Binder | binding result
B10 | no binding
B11 | no binding
B12 | no binding
B13 | no binding

What follows are binders tested against T5, BSA (UniProt P02769 25-607) (assay: ELISA).
T5 construct: Negative control antigen
T5 sequence (P02769 25-607 limits assumed): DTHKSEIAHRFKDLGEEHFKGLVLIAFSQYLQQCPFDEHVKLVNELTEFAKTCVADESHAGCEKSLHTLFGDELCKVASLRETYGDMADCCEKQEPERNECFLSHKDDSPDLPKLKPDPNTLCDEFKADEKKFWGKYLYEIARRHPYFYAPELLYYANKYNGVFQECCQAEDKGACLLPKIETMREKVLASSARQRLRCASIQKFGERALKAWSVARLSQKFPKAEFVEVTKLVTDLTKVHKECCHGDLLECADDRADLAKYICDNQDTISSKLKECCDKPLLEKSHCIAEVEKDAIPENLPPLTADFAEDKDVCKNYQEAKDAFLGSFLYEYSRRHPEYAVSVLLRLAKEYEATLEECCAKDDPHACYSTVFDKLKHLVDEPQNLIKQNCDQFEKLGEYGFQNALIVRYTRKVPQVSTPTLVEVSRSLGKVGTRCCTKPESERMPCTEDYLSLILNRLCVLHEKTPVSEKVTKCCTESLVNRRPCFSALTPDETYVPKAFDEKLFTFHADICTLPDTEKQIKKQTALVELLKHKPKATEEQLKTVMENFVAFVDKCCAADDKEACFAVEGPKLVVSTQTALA

Binder | binding result
B10 | no binding
B11 | no binding
B12 | no binding
B13 | no binding

The binders below were run against T3, huErb2-Fc (assay: ELISA).

Binder | binding result
B12 | no binding
B13 | no binding

What follows are binders tested against T6, human serum albumin (human, UniProt P02768 25-609) (assay: ELISA).
T6 construct: Negative control antigen
T6 sequence (P02768 25-609 limits assumed): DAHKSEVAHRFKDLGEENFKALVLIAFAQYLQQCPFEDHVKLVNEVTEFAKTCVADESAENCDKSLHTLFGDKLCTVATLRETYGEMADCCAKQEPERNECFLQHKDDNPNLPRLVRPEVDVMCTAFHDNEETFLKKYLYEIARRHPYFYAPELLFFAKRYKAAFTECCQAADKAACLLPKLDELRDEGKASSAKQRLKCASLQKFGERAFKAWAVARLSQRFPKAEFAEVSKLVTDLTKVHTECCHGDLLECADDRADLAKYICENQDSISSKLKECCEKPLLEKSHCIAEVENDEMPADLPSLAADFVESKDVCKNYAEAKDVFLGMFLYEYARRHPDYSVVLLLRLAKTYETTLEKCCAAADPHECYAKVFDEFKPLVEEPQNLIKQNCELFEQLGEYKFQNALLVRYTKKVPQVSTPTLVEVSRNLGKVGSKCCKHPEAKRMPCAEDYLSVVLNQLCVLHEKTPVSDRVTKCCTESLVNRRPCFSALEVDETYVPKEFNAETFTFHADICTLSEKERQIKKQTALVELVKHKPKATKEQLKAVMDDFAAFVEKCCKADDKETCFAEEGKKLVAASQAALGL

Binder | binding result
B10 | no binding
B11 | no binding
B12 | no binding
B13 | no binding

Target: T1, Human CD100
Assay: affinity testing, method and unit not printed in Example 10 (nM as in Table 3)
Remark: another data set of the same source

Binder | Kd [nM]
B20 | 0.1
B21 | 0.09
B22 | 0.09
B23 | 0.09
B24 | 0.11
B25 | 0.14
B26 | 0.13
B27 | 0.09
B28 | 0.09
B29 | 0.13
B30 | 0.24
B31 | 0.1
